Measured values reported in patent publication US20180185504A1 (Regeneron, published 2018).
Residue numbers refer to the chain shown, from its start. Numbers in names are those of the source.

Legend:
[1] = biological target: T1, human PRLR on cells (endogenous on T47D, T47D#11, MCF7); introduced in HEK293/hPRLR/STAT5-Luc, 293/hPRLR, … (human, UniProt P16471 25-622); assay: FACS on T47D cells
T1 construct: no tag is stated for these lines; also called prolactin receptor
T1 sequence: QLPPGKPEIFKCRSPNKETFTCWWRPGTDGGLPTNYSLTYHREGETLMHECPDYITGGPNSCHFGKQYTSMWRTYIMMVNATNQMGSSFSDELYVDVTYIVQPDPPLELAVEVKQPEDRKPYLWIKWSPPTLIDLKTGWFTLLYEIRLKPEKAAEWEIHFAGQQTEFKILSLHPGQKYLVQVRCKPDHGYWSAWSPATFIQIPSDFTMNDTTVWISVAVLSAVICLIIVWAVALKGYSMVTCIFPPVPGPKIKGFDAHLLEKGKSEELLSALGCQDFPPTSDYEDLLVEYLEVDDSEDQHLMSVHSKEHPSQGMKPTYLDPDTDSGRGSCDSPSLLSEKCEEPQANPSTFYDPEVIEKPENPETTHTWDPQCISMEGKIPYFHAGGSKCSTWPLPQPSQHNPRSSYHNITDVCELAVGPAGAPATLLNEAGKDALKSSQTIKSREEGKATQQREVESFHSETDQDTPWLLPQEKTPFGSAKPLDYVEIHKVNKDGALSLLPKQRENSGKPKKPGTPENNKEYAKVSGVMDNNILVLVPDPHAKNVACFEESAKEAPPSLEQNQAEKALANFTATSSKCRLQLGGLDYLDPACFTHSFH

[2] = biological target: T1, human PRLR on cells (endogenous on …); assay: cell-based or functional assay
[3] = biological target: T2, hPRLR.mFc (soluble dimeric human PRLR) (human); assay: SPR (Biacore), antibody capture, 37 C
T2 construct: dimeric PRLR construct
T2 chain: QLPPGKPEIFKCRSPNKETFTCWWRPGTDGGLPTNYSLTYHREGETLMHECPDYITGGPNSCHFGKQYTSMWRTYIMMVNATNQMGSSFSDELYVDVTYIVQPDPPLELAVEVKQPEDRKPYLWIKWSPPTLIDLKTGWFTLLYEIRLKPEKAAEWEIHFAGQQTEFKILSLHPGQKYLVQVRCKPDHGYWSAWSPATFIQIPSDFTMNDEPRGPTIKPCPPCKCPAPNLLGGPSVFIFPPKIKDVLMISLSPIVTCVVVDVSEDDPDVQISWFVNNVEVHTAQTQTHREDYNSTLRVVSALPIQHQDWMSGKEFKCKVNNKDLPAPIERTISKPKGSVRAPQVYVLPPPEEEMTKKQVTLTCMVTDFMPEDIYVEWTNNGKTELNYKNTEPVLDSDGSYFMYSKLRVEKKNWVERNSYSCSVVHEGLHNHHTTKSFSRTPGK
Protocol: (§1) Measurements were conducted on a T200 Biacore instrument. Kinetic association (kₐ) and dissociation (kd) rate constants were determined by processing and fitting the data to a 1:1 binding model using Scrubber 2.0 curve fitting software.

[4] = biological target: T3, hPRLR.mmh (soluble monomeric human PRLR) (human); assay: SPR (Biacore), antibody capture, 37 C
T3 construct: soluble monomeric PRLR protein
T3 chain: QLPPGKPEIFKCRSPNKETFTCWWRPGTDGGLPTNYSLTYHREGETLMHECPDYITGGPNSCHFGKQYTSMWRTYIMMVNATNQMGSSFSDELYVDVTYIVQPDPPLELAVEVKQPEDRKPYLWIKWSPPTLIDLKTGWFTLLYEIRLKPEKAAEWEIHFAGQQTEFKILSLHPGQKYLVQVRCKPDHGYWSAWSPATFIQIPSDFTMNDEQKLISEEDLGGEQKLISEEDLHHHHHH
Protocol: as §1

[5] = biological target: T4, mfPRLR.mmh (soluble monomeric macaca fascicularis PRLR) (macaca fascicularis); assay: SPR (Biacore), antibody capture, 37 C
T4 construct: soluble monomeric PRLR protein; also called macaca fascicularis (mf) PRLR.mmh; monkey PRLR
T4 chain: T3 chain with I76V, A110T, I125M, I158T, T207I
Protocol: as §1

[6] = biological target: T1, human PRLR on cells (endogenous on …); assay: imaging of alexa488 intensity on T47D cells
Protocol: Briefly, 20,000 T47D cells were seeded in collagen coated 96 well plates. […] Cells were then incubated with alexa488 conjugated anti-hFc Fab secondary antibodies for 30 minutes on ice followed by two additional PBS washes. Antibodies were allowed to internalize for 1 h at 37° C. in internalization buffer (PBS+2% FBS) or remained at 4° C. Cells were fixed in 4% formaldehyde, nuclei were stained with DRAQ5 (Cell signaling), and images were acquired on the ImageXpress micro XL (Molecular Devices). Whole cell alexa488 intensity at 37° C. (Binding) and the alexa488 intensity in the intracellular vesicles at 37° C. (Internalization) were determined via Columbus image analysis software (PerkinElmer).

[7] = biological target: T5, monkey macaca fascicularis PRLR construct with an HA tag on HEK293/mfPRLR cells (macaca fascicularis, UniProt A0A2K5WXK1 25-619); assay: FACS on HEK293/mfPRLR cells
T5 construct: stably transfected into HEK293
T5 sequence: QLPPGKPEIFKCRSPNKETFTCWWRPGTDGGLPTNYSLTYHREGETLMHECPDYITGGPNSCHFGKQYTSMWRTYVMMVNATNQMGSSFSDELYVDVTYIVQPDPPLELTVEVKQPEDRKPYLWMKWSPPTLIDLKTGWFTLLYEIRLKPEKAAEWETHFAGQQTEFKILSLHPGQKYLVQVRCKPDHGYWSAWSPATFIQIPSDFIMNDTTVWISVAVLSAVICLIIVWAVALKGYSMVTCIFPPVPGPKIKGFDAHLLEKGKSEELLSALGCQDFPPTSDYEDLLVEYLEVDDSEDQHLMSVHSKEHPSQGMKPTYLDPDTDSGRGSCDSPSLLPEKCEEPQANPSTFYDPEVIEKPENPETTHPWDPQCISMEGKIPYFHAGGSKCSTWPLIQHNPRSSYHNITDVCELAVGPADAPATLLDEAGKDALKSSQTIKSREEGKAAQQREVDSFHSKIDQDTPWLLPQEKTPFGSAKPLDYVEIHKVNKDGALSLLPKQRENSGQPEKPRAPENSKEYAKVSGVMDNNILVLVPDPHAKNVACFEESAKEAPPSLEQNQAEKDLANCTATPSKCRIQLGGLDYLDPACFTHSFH

[8] = biological target: T6, human PRLR construct with an HA tag on HEK293/hPRLR cells (human, UniProt P16471 25-622); assay: FACS on HEK293/hPRLR cells
T6 sequence: T1 sequence

[9] = biological target: T1, human PRLR on cells (endogenous on …); assay: cell-based or functional assay; remark: listed apart in the source
[10] = biological target: T7, mouse PRLR with an HA tag on HEK293 cells (mouse, UniProt Q08501 20-608); assay: FACS on HEK293/mPRLR cells
T7 construct: whole, on cells; also called HEK293/mPRLR; rodent PRLR; not shown: HA tag
T7 sequence (looked up): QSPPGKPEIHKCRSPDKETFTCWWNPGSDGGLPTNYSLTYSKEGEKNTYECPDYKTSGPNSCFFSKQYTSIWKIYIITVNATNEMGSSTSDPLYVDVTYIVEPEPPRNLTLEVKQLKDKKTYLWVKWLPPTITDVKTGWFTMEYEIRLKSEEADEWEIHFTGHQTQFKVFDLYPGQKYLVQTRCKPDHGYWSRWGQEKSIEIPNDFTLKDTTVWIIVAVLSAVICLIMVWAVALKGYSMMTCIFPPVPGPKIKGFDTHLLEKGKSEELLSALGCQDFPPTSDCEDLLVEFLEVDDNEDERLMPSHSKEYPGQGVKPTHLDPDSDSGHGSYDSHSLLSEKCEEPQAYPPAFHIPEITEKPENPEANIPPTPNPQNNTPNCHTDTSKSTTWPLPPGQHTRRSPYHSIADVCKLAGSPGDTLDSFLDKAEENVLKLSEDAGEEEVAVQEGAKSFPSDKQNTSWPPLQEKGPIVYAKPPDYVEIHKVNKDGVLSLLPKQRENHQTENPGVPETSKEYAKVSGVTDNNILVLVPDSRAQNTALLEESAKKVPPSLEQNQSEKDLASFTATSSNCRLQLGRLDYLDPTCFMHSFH

B1: H1H6801P (antibody, human IgG1, V domains shown)
VH: QVQLQQSGPGLVKPSQTLSLTCVISGDSVSSNTAWNWVRQSPSRGLEWLGRTYYRSKWYNDYAVSVKSRITINPDTSKNQFSLLMNSVTPEDTAVYYCARVVRGLNYFDYWGQGTLVTVSS
VL: DIVMTQSPDSLAVSLGERATINCKSSQSVLYNSNNKNYLAWYQQKPGQPPKLLIYWSSSRESGVPDRFSGSGSGTDFTLTISGLQAEDVAIYYCQQYSTIPYTFGQGTKLEIK
notes: human IgG1 Fc (H1H)
[1]
  FACS Cell Binding (Fold Above Background): 45 fold
[2]
  % Internalization relative to Control I (T47D cells, imaging): 149%
[3]
  Kd: 0.279 nM
  T 1/2: 52 min
  koff: 0.000221 s⁻¹
  kon: 793000 M⁻¹ s⁻¹
[4]
  Kd: 4.63 nM
  T 1/2: 3 min
  koff: 0.00441 s⁻¹
  kon: 951000 M⁻¹ s⁻¹
[5]
  Kd: 10.8 nM
  T 1/2: 1 min
  koff: 0.00771 s⁻¹
  kon: 711000 M⁻¹ s⁻¹
[6]
  % Total Binding relative to Control I: 156%
[7]
  FACS Cell Binding (Fold Above Background): 88 fold
[8]
  FACS Cell Binding (Fold Above Background): 47 fold
[9]
  IC50 of Blocking 5 nM PRL [M] (STAT5-Luc reporter, HEK293/hPRLR/STAT5-Luc cells): 1.4e-10 M
  Percent Blocking at 100 nM Antibody (STAT5-Luc reporter): 100%

B2: H1H6793P (antibody, human IgG1, V domains shown)
VH: EVQLVESGGGLVQPGGSLRLSCAASGFSFSIYAMSWFRQAPGKGLEWVSAINGRGDGTHYADSVKGRFTISRDNSKTTLYLQMSSLRAEDTAVYYCAKPVMSTNGFDIWGQGTMVTVSS
VL: DIQMTQSPSTLSASVGDRVTITCRASQSISSWLAWYQLKPGKAPKLLIYKASNLESGVPSRFSGSGSGTEFTLTISSLQPDDFATYYCQQYNIYWTFGQGTKVEIK
[10]
  binding result: no binding

B3: H1H6795P (antibody, human IgG1, V domains shown)
VH: QVQLVQSGAEVKKPGASVKVSCKASGYTFGTSGITWVRQAPGQGLEWMGWSSAYNGKTDYAQKFQDRVTMTTDTSTTTGYMEMRSLTSDDTAVYYCTTVVRRPFDFWGQGTLVTVSS
VL: DIQMTQSPSSLSASVGDRVTITCRASQDINNFLAWFQQKPGKAPKSLIYAASSLQSGVPSKFSGGGSGTDFALTISSLQPEDFATYYCQQYSSYPITFGQGTRLEIK
[10]
  binding result: no binding

B4: H1H6797P (antibody, human IgG1, V domains shown)
VH: EVQLVESGGGLVQPGGSLRLSCIVSGFTFSGSWMSWVRQLPGKGLEWVANIKEDGSDSYYVDSVEGRFTISRDNAKSSLYLQMNSLRVDDTAVYFCARARTVPLHYWGQGTLVTVSS
VL: DIQMTQSPSTLSASVGDRVTITCRASQSINIWLAWYQQKPGKAPKLLIYRASYLESGVPSSFAGGGSGTEFTLTISSLQPDDFGTYYCQHYNSYPFTFGQGTKLEIK
[10]
  binding result: no binding

B5: H1H6800P (antibody, human IgG1, V domains shown)
VH: EVQLVESGGGLVQPGRSLRLSCAASGFTFDGYAMHWVRQGPGKGLEWVSGISWYSDTLGYADSVKGRFTISRDNAKNSLYLQMNSLRTEDTAFYYCAKISSSGWAFDYWGQGTLVTVSS
VL: EIVLTQSPGTLSLSPGERATLSCRASHSVSSAYLAWYQQKPGQTPRLLIYGTSSRATGIPDRFSGSGSGTDFTLTISRLEPEDFAVYYCQQYGSSPLFTFGPGTKVDIK
[10]
  binding result: no binding

B6: H1H6803P (antibody, human IgG1, V domains shown)
VH: EVQLVESGGGVVRPGGSLRLSCAASGFKFDDYGMTWVRHVPGKGLEWVSGINWNGGRTGYTDSVKGRFTISRDNAKNSLYLQMNSLRAEDTALYHCAGARRDAFDIWGQGTMVTVSS
VL: DIQMTQSPSSLSASIGDRVTITCRASQNIIKYLNWYQQNAGKAPKLLIYTASSLQSGVPSRFSGSGSGTDFTLTISSLQPEDFATYYCQQSSSSPYTFGQGTKLEIK
[10]
  binding result: no binding

B7: H1H6807P (antibody, V domains shown)
VH: QVQLVESGGGVVQPGRSLRLSCAASGFTFSDYNMHWVRQAPGKGLEWVAVIWYDGSNKHYADSVKGRFTISRDNSKNTLYLQMNSLRAEDTAVYYCARDGFTIFGMVLDYWGQGTLVTVSS
VL: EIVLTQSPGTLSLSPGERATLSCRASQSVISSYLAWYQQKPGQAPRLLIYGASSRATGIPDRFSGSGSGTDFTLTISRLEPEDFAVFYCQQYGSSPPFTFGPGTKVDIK
[10]
  binding result: no binding
